Assay results as given in patent US12269859B2, “Synthetic immune receptors and methods of use thereof” (Angeles Therapeutics, Inc., priority 2016, dated 2025).

B1: 101216-H03 (protein)
chain: MALPVTALLLPLALLLHAARPEIVMTQSPATLSLSPGERATLSCRASQDISKYLNWYQQKPGQAPRLLIYHTSRLHSGIPARFSGSGSGTDYTLTISSLQPEDFAVYFCQQGNTLPYTFGQGTKLEIKLEGKPIPNPLLGLDSTGSGEDLKNVFPPEVAVFEPSKAEIAHTQKATLVCLATGFYPDHVELSWWVNGKEVHSGVCTDPQPLKEQPALNDSRYCLSSRLRVSATFWQNPRNHFRCQVQFYGLSENDEWTQDRAKPVTQIVSAEAWGRADCGITSASYHQGVLSATILYEILLGKATLYAVLVSALVLMAMVKRKDSRGRAKRSGSGATNFSLLKQAGDVEENPGPTSMDWIWRILFLVGAATGAHSFEDIQMTQTTSSLSASLGDRVTISCRASQDISKYLNWYQQKPDGTVKLLIYHTSRLHSGVPSRFSGSGSGTDYSLTISNLEQEDIATYFCQQGNTLPYTFGGGTKLEITTREQKLISEEDGSGIQNPDPAVYQLRDSKSSDKSVCLFTDFDSQTNVSQSKDSDVYITDKCVLDMRSMDFKSNSAVAWSNKSDFACANAFNNSIIPEDTFFPSSDVPCDVKLVEKSFETDTNLNFQNLSVIGFRILLLKVAGFNLLMTLRLWSSRAKRSGSGVKQTLNFDLLKLAGDVESNPGPSRGHMTEYKPTVRLATRDDVPRAVRTLAAAFADYPATRHTVDPDRHIERVTELQELFLTRVGLDIGKVWVADDGAAVAVWTTPESVEAGAVFAEIGPRMAELSGSRLAAQQQMEGLLAPHRPKEPAWFLATVGVSPDHQGKGLGSAVVLPGVEAAERAGVPAFLETSAPRNLPFYERLGFTVTADVEVPEGPRTWCMTRKPGA
B2: 012417-H04 (protein)
chain: MALPVTALLLPLALLLHAARPLEGKPIPNPLLGLDSTGSGEDLKNVFPPEVAVFEPSKAEIAHTQKATLVCLATGFYPDHVELSWWVNGKEVHSGVCTDPQPLKEQPALNDSRYCLSSRLRVSATFWQNPRNHFRCQVQFYGLSENDEWTQDRAKPVTQIVSAEAWGRADCGITSASYHQGVLSATILYEILLGKATLYAVLVSALVLMAMVKRKDSRGRAKRSGSGATNFSLLKQAGDVEENPGPTSMALPVTALLLPLALLLHAARPDIVMTQSPATLSLSPGERATLSCRSSKSLQNVNGNTYLYWFQQKPGQSPQLLIYRMSNLNSGVPDRFSGSGSGTEFTLTISSLEPEDFAVYYCMQHLEYPITFGAGTKLEIKGGGGSGGGGSGGGGSEVQLVESGGGLVKPGGSLKLSCAASGYTFTSYVMHWVRQAPGKGLEWIGYINPYNDGTKYNEKFQGRVTISSDKSISTAYMELSSLRSEDTAMYYCARGTYYYGTRVFDYWGQGTLVTVSSTREQKLISEEDGSGIQNPDPAVYQLRDSKSSDKSVCLFTDFDSQTNVSQSKDSDVYITDKCVLDMRSMDFKSNSAVAWSNKSDFACANAFNNSIIPEDTFFPSSDVPCDVKLVEKSFETDTNLNFQNLSVIGFRILLLKVAGFNLLMTLRLWSSRAKRSGSGVKQTLNFDLLKLAGDVESNPGPSRGHMTEYKPTVRLATRDDVPRAVRTLAAAFADYPATRHTVDPDRHIERVTELQELFLTRVGLDIGKVWVADDGAAVAVWTTPESVEAGAVFAEIGPRMAELSGSRLAAQQQMEGLLAPHRPKEPAWFLATVGVSPDHQGKGLGSAVVLPGVEAAERAGVPAFLETSAPRNLPFYERLGFTVTADVEVPEGPRTWCMTRKPGA
B3: 091216-K03 (protein)
chain: MALPVTALLLPLALLLHAARPLEGKPIPNPLLGLDSTGSGEDLKNVFPPEVAVFEPSKAEIAHTQKATLVCLATGFYPDHVELSWWVNGKEVHSGVCTDPQPLKEQPALNDSRYCLSSRLRVSATFWQNPRNHFRCQVQFYGLSENDEWTQDRAKPVTQIVSAEAWGRADCGITSASYHQGVLSATILYEILLGKATLYAVLVSALVLMAMVKRKDSRGRAKRSGSGATNFSLLKQAGDVEENPGPTSTMALPVTALLLPLALLLHAARPEIVMTQSPATLSLSPGERATLSCRASQDISKYLNWYQQKPGQAPRLLIYHTSRLHSGIPARFSGSGSGTDYTLTISSLQPEDFAVYFCQQGNTLPYTFGQGTKLEIKGGGGSGGGGSGGGGSQVQLQESGPGLVKPSETLSLTCTVSGVSLPDYGVSWIRQPPGKGLEWIGVIWGSETTYYNSSLKSRVTISKDNSKNQVSLKLSSVTAADTAVYYCAKHYYYGGSYAMDYWGQGTLVTVSSTREQKLISEEDGSGIQNPDPAVYQLRDSKSSDKSVCLFTDFDSQTNVSQSKDSDVYITDKCVLDMRSMDFKSNSAVAWSNKSDFACANAFNNSIIPEDTFFPSSDVPCDVKLVEKSFETDTNLNFQNLSVIGFRILLLKVAGFNLLMTLRLWSSRAKRSGSGVKQTLNFDLLKLAGDVESNPGPSRGHMTEYKPTVRLATRDDVPRAVRTLAAAFADYPATRHTVDPDRHIERVTELQELFLTRVGLDIGKVWVADDGAAVAVWTTPESVEAGAVFAEIGPRMAELSGSRLAAQQQMEGLLAPHRPKEPAWFLATVGVSPDHQGKGLGSAVVLPGVEAAERAGVPAFLETSAPRNLPFYERLGFTVTADVEVPEGPRTWCMTRKPGA
modifications: Synthetic Immune Receptor (SIR)
B4: 012617-M05 (protein)
chain: MALPVTALLLPLALLLHAARPLEGKPIPNPLLGLDSTGSGEDLKNVFPPEVAVFEPSKAEIAHTQKATLVCLATGFYPDHVELSWWVNGKEVHSGVCTDPQPLKEQPALNDSRYCLSSRLRVSATFWQNPRNHFRCQVQFYGLSENDEWTQDRAKPVTQIVSAEAWGRADCGITSASYHQGVLSATILYEILLGKATLYAVLVSALVLMAMVKRKDSRGRAKRSGSGATNFSLLKQAGDVEENPGPTSMALPVTALLLPLALLLHAARPQSVLTQPASVSGSPGQSITISCTGTSSDVGGYNYVSWYQQHPGKAPKLMIYDVNNRPSEVSNRFSGSKSGNTASLTISGLQAEDEADYYCSSYTTGSRAVFGGGTKLTVLGGGGGSGGGGSGGGGSEVQLVQSGAEVKKPGESLTISCKASGYSFPNYWITWVRQMSGGGLEWMGRIDPGDSYTTYNPSFQGHVTISIDKSTNTAYLHWNSLKASDTAMYYCARYYVSLVDIWGQGTLVTVSSTREQKLISEEDGSGIQNPDPAVYQLRDSKSSDKSVCLFTDFDSQTNVSQSKDSDVYITDKCVLDMRSMDFKSNSAVAWSNKSDFACANAFNNSIIPEDTFFPSSDVPCDVKLVEKSFETDTNLNFQNLSVIGFRILLLKVAGFNLLMTLRLWSSRAKRSGSGVKQTLNFDLLKLAGDVESNPGPSRGHMTEYKPTVRLATRDDVPRAVRTLAAAFADYPATRHTVDPDRHIERVTELQELFLTRVGLDIGKVWVADDGAAVAVWTTPESVEAGAVFAEIGPRMAELSGSRLAAQQQMEGLLAPHRPKEPAWFLATVGVSPDHQGKGLGSAVVLPGVEAAERAGVPAFLETSAPRNLPFYERLGFTVTADVEVPEGPRTWCMTRKPGA

Tested on: target antigen-expressing cell line
Experiment: Jurkat NFAT-GFP assay, coculture with target cell lines expressing the respective target antigen (summary Table 10A)
Assay type: cell-based, human
Design: key: The signs +/−, +, 2+ etc. after the name of the cell lines indicate the relative degree of positivity on the Jurkat-NFAT-GFP assay as measured by the % GFP positive cells; +: relative degree of positivity on the Jurkat-NFAT-GFP assay as measured by the % GFP positive cells; 2+: relative degree of positivity on the Jurkat-NFAT-GFP assay as measured by the % GFP positive cells
Conditions: relative % GFP positive cells; for NFAT-GFP ASSAY Positive Cell lines: NALM6: SIR-expressing Jurkat-NFAT-GFP cells cocultured with NALM6; for NFAT-GFP ASSAY Positive Cell lines: RAJI: SIR-expressing Jurkat-NFAT-GFP cells cocultured with RAJI
Experimental: (B) Induction of NFAT promoter driven GFP expression. The control vector- and SIR-expressing Jurkat-NFAT-GFP cocultured for 4-24 hours with the target antigen-expressing cell line (described above) and their ability to bind to the target antigen is assayed by measuring induction of GFP expression using Flow Cytometry. Cellular supernatant is collected and assayed for the induction of cytokines (e.g., IL2).
Jurkat NFAT-GFP Assay For Synthetic Immune Receptors. The Jurkat-NFAT-GFP cells are engineered in such a way that the IL-2 promoter, which carries NFAT binding sites, is cloned upstream of the GFP gene. These cells have been used to study signaling via TCR and CAR. The different SIRs were stably expressed in Jurkat NFAT-GFP cells by lentiviral mediated gene transfer, followed by selection with puromycin. The SIR-expressing Jurkat-NFAT-GFP cells were cocultured with the target cells at E:T ratio of approximately 1:2 for approximately 4 hours to 18 hours. When the interaction between SIRs and their target antigen results in activation of the NFAT pathway, GFP expression is induced.
Induction of GFP expression by coculturing of Jurkat-NFAT-GFP cells expressing different SIR constructs and the different target cells was studied essentially as described previously (Wu, Roybal, Puchner, Onuffer, & Lim, 2015). GFP expression was monitored by FACS analysis. A few representative examples of this assay are shown in the FIG. 13A-B. In panel A, control Jurkat-NFAT-GFP cells or those expressing SIRs targeting CD19 (clone ID 051716-I08), MPL (Clone ID: 040716-A07) and BCMA (Clone ID: 011116-A07) were incubated with RAJI (top), HEL (middle) or U266 (bottom) cells, respectively. […] In panel B, Jurkat cells expressing SIR targeting CDH6 (Clone ID: 051716-J05), CD276 (Clone ID: 050516-Q06) and Her2/neu (Clone ID: 050516-I03) were incubated with SKOV3 (top) and […] (middle and bottom) cells, respectively. […] The Jurkat-NFAT-GFP cells were engineered to express different SIRs targeting other antigens and the experiment repeated upon coculture with the target cells expressing their respective target antigen. The Jurkat-NFAT-GFP (parental) cells were used as control. The names of different SIRs, their SEQ ID NOs, component antigen binding domains and TCR chains can be determined by reference to Tables 7A-7H. A SIR is considered positive in the assay in case the SIR expressing Jurkat-NFAT-GFP cells show greater % GFP positive cells when cultured with the target cell line as compared to parental Jurkat-NFAT-GFP cells. […] The signs +/−, +, 2+ etc. after the name of the cell lines indicate the relative degree of positivity on the Jurkat-NFAT-GFP assay as measured by the % GFP positive cells after culture of the SIR expressing Jurkat-NFAT-GFP cells with that cell line. […] In addition, great diversity of response against the same target cell line is observed with Jurkat cells expressing SIRs containing different antigen binding domains targeting the same antigen (e.g., SIRs having antigen binding domains derived form different CD19 antibodies) even when the SIRs share the same TCR chains and linkers. Finally, Jurkat cells expressing SIRs targeting different antigens (e.g. CD19 vs CD20) show a diversitiy of response when exposed to the same target cell line. Thus, a diverse immune response can be generated against a single target cell by combining SIRs with different TCR chains, linkers, antigen binding domains and target specificity. Table 10A also summarizes the results of GLuc based T cell cytotoxicity assay observed with different SIRs when exposed to their target cell lines. […]

Molecule	NFAT-GFP ASSAY Positive Cell lines: NALM6	NFAT-GFP ASSAY Positive Cell lines: RAJI	NFAT-GFP ASSAY Positive Cell lines: HepG2 (SIR-expressing Jurkat-NFAT-GFP cells cocultured with HepG2)
B1	RAJI(2+), NALM6(2+)	RAJI(2+), NALM6(2+)	–
B2	(+)	RAJI (2+), NALM6	–
B3	–	RAJI (+/−)	–
B4	–	–	HepG2 (2+)
